In paper PMC7595633 (PLoS Neglected Tropical Diseases, 2020):
“And” between values parts separate entries of the source, which are not always exact repeats. Equal values may be shown once.

T1: Trypanosoma brucei selenocysteine lyase (TbSCLY), recombinant (Trypanosoma brucei, UniProt Q38DC4 1-451, pyridoxal-phosphate (PLP) bound to the active site)
T1 chain: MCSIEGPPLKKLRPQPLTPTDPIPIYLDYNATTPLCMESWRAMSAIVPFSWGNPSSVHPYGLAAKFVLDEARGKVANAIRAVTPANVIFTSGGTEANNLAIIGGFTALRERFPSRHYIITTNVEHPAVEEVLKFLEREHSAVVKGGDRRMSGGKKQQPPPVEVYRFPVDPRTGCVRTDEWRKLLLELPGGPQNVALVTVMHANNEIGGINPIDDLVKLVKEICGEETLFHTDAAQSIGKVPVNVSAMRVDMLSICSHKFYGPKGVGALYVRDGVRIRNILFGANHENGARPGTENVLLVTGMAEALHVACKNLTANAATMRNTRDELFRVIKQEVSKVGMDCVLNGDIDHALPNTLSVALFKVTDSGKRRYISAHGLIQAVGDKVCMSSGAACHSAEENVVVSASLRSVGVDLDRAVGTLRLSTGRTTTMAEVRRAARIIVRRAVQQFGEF

B1: Leishmania major selenophosphate synthetase (LmSEPHS2), recombinant full-length (enzyme, UniProt Q4Q0M0 1-398, looked up)
chain: MSHKRPQSSAGESNGAVDLKTPRFDPVSLGLPAEFQLTDYTRLKGCSCKLPQPKLLALLQELSATPGQKDVGMDCSIVPLHHTNSKGEALFLVSTTDFFFPSVSDPFLQGQIGAANVLSDLYSMGIPDCDTMLMLLAASTEMDEHERLITTREIMKGFAERARLATTTVTGGQTVMNPWPLIGGVAMAVVSEAEMVRPTGLLCAGDILVLTKPLGCQVAVNLKQWLLRPSPLYEEAIAGHISPEEIEELYNMATDSMRRLNREGARLMRKHGAHGATDVTGFGILGHANNFGAAQAVGDAPRSLCLVLERLPMFKTAVAASKQMNDKYRLLEGYSAETSGGLLVAFPSTTAAAAFCAELTAVDGGCPSWIVGHVEDRATNAVDGVYARLKDGYEIVEV
notes: selenophosphate synthetase SEPHS2 of Leishmania major, LmjF.36.5410; also called LmSEPSH2
B2: ΔN(69)-LmSEPHS2, N-terminally truncated L. major selenophosphate synthetase (domain or fragment, Leishmania major, UniProt Q4Q0M0 70-398, looked up)
chain: DVGMDCSIVPLHHTNSKGEALFLVSTTDFFFPSVSDPFLQGQIGAANVLSDLYSMGIPDCDTMLMLLAASTEMDEHERLITTREIMKGFAERARLATTTVTGGQTVMNPWPLIGGVAMAVVSEAEMVRPTGLLCAGDILVLTKPLGCQVAVNLKQWLLRPSPLYEEAIAGHISPEEIEELYNMATDSMRRLNREGARLMRKHGAHGATDVTGFGILGHANNFGAAQAVGDAPRSLCLVLERLPMFKTAVAASKQMNDKYRLLEGYSAETSGGLLVAFPSTTAAAAFCAELTAVDGGCPSWIVGHVEDRATNAVDGVYARLKDGYEIVEV
notes: selenophosphate synthetase SEPHS2 of Leishmania major, LmjF.36.5410, lacking the 69-residue N-terminal region; also called ΔN-LmSEPHS2
B3: ΔN(25)-TbSEPHS2, amino acid residues 26-393 (domain or fragment, Trypanosoma brucei, UniProt Q38A34 26-393, looked up)
chain: GLPEEFTLTDYTRLKGCSCKVPQPELLALLQSVSTTPGRRDVGMDCSIVKLQHKDETGKPLYMVSTTDFFFPSVEDPYLQGQIGAANVLSDLYSTGIDRCDTVLMLLAASTDMDKTEREVCTQEMMKGFVDHVRLAGSDVTGGQTVMNPWPLIGGIATSVVAESQMIRPTGLQPGDILVLTKPLGCQIAVNLKQWLRRPSPIFEEQIQGKMDSEEIEELYNAAADGMKRLNRMAAALMHSHGAHGATDVTGFGILGHAKNLGSAQKADVCLVLDSLPMYRGAVKASKLMGDKYRLFEGYAAETSGGLLVAFGTREEAEGYIRELYETDGEPAWVVGRVVRREGSAPYALLQKDYKIIEVGAKVNDKII
notes: selenophosphate synthetase SEPHS2 of Trypanosoma brucei, Tb927.10.9410, residues 26-393; Cloned into pET20b with the printed oligonucleotides
B4: ΔN(70)-TbSEPHS2, residues 71-393 (domain or fragment, Trypanosoma brucei, UniProt Q38A34 71-393, looked up)
chain: CSIVKLQHKDETGKPLYMVSTTDFFFPSVEDPYLQGQIGAANVLSDLYSTGIDRCDTVLMLLAASTDMDKTEREVCTQEMMKGFVDHVRLAGSDVTGGQTVMNPWPLIGGIATSVVAESQMIRPTGLQPGDILVLTKPLGCQIAVNLKQWLRRPSPIFEEQIQGKMDSEEIEELYNAAADGMKRLNRMAAALMHSHGAHGATDVTGFGILGHAKNLGSAQKADVCLVLDSLPMYRGAVKASKLMGDKYRLFEGYAAETSGGLLVAFGTREEAEGYIRELYETDGEPAWVVGRVVRREGSAPYALLQKDYKIIEVGAKVNDKII
notes: selenophosphate synthetase SEPHS2 of Trypanosoma brucei, Tb927.10.9410, residues 71-393; Cloned into pET20b with the printed oligonucleotides; also called ΔN(70)-SEPHS2
B5: Trypanosoma brucei selenophosphate synthetase (TbSEPHS2), recombinant full-length (enzyme, UniProt Q38A34 1-393, looked up)
chain: MSEKEGKVIPETNGMKRPRFDPVKLGLPEEFTLTDYTRLKGCSCKVPQPELLALLQSVSTTPGRRDVGMDCSIVKLQHKDETGKPLYMVSTTDFFFPSVEDPYLQGQIGAANVLSDLYSTGIDRCDTVLMLLAASTDMDKTEREVCTQEMMKGFVDHVRLAGSDVTGGQTVMNPWPLIGGIATSVVAESQMIRPTGLQPGDILVLTKPLGCQIAVNLKQWLRRPSPIFEEQIQGKMDSEEIEELYNAAADGMKRLNRMAAALMHSHGAHGATDVTGFGILGHAKNLGSAQKADVCLVLDSLPMYRGAVKASKLMGDKYRLFEGYAAETSGGLLVAFGTREEAEGYIRELYETDGEPAWVVGRVVRREGSAPYALLQKDYKIIEVGAKVNDKII
notes: selenophosphate synthetase SEPHS2 of Trypanosoma brucei, Tb927.10.9410, 393 residues (from the limits of the truncated constructs); also called SPS2; TbSPSH2

Tests used:
[1] = target: the molecule itself; assay: native gel or EMSA; PhastGel gradient 8-25%, room temperature; 1 mg/mL (methods), 2 mg/mL (legend of Fig 1D); Coomassie stained
[2] = target: the molecule itself; assay: AUC; sedimentation equilibrium; tetramer to dimers; 0.5, 0.75 and 1.0 mg/mL; 8,000, 10,000 and 12,000 rpm, 4°C; global fit in SEDPHAT
[3] = target: T1, Trypanosoma brucei selenocysteine lyase …; assay: ITC

Binder | stoichiometry N [1] | Kd [2] [µM] | Kd [3] [µM]
B1 | 2 and 4 | 178 ± 10 | –
B2 | 2 and 4 | – | –
B3 | 2 and 4 | – | –
B4 | 2 and 4 | – | –
B5 | – | – | 5.2
